According to patent publication US20080038775A1 (published 2008):

T1: LRP5prop3,4LBD V5His (propellers 3 and 4 and ligand binding domain of LRP5, amino acids 642 to 1376 of … (UniProt O75197 642-1376))
T1 construct: range 642-1376; Secreted from HEK293T cells co-transfected with RAP; also called LRP5VHis prop3,4; not shown: V5 (and His) tag from the pcDNA3.1/V5 expression vector
T1 sequence (looked up): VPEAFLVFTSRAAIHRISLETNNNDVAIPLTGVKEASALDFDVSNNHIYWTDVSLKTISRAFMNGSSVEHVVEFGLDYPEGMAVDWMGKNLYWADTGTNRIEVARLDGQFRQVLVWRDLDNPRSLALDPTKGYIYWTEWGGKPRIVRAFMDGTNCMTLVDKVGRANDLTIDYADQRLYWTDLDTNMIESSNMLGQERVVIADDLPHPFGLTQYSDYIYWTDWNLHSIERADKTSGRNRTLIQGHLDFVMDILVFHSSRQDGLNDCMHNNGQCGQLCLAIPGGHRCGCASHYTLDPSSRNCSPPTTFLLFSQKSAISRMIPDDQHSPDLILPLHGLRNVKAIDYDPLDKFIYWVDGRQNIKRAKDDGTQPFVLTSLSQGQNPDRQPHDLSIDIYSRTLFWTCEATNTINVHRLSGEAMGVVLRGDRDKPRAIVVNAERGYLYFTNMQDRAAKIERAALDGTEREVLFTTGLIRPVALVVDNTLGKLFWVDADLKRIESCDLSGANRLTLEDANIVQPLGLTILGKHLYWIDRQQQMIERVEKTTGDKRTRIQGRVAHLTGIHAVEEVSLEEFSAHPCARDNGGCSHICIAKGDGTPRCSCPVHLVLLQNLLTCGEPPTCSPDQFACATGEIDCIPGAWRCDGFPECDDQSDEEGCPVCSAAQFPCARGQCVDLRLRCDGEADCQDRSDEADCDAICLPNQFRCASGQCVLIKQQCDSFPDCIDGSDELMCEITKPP

B1: Dkk1mycHis (wild-type human Dkk1 with C-terminal c-myc and His6 tags, secreted by HEK293T cells; used purified or as conditioned media) (ligand)
chain: ATLNSVLNSNAIKNLPPPLGGAAGHPGSAVSAAPGILYPGGNKYQTIDNYQPYPCAEDEECGTDEYCASPTRGGDAGVQICLACRKRRKRCMRHAMCCPGNYCKNGICVSSDQNHFRGEIEETITESFGNDHSTLDGYSRRTTLSSKMYHTKGQEGSVCLRSSDCASGLCCARHFWSKICKPVLKEGQVCTKHRRKGSHGLEIFQRCYCGEGLSCRIQKDHHQASNSSRLHTCQRHSRGPFEQKLISEEDLNMHTGHHHHHH
modifications: N-linked glycosylation (mammalian pattern); 125I-labelled by the chloramine-T method only in the radioligand assay of Example 10
notes: Secreted protein; also called WT; wild-type Dkk1
B2: Recombinant human Dkk1 from R&D Systems (Cat. No. 1096-DK/CF), baculovirus/insect cell derived (ligand, UniProt O94907 32-266, looked up)
chain: TLNSVLNSNAIKNLPPPLGGAAGHPGSAVSAAPGILYPGGNKYQTIDNYQPYPCAEDEECGTDEYCASPTRGGDAGVQICLACRKRRKRCMRHAMCCPGNYCKNGICVSSDQNHFRGEIEETITESFGNDHSTLDGYSRRTTLSSKMYHTKGQEGSVCLRSSDCASGLCCARHFWSKICKPVLKEGQVCTKHRRKGSHGLEIFQRCYCGEGLSCRIQKDHHQASNSSRLHTCQRH
modifications: 125I-labelled in the radioligand assay of Example 10 only
notes: Bought protein; no myc tag; also called R&D Dkk1; R&D Systems Dkk1

How the values were obtained:
[1] = target: LRP5 protein (form not named at the place) (UniProt O75197); experiment: cell-based or functional assay
[2] = target: T1, LRP5prop3,4LBD V5His (propellers 3 and …); experiment: TR-FRET (anti-V5-Eu / anti-myc-Cy5), apparent Kd, concentrations of Dkk1 and LRP5prop34LBD varied, 50 mM PIPES pH 6.5
Procedure: The time resolved fluorescence resonance energy transfer (TR-FRET) platform was chosen to develop an assay for Dkk1-LRP5prop34LBD interaction because the TR-FRET assay is highly sensitive, easy to set up and capable of detecting weak interactions. For this assay, two labeled molecules are added to the system. If an interaction occurs, the labels are brought into close proximity and energy transfer occurs to release energy at specific wavelengths that can be detected. For detection of interaction between Dkk1 and LRP5prop34LBD, the Dkk1 (tagged with myc) is effectively labeled using a Cy5 labeled monoclonal anti-myc antibody. […] Cy5 absorbs at 615 nm and emits energy at 665 nm which is detected. The measurement was conducted on a Wallac EnVision 2100 Multilabel Reader from PerkinElmer Life Science. […] The interaction between Dkk1 and LRP5prop3,4LBD is expressed as the ratio of fluorescence intensity at 665 nm over 615 nm, which represents the energy transfer from the europium to Cy5 dye. […]
Kdapp Determination. The observed Kdapp was determined by varying concentrations of Dkk1 and LRP5prop34LBD in the reaction mixture containing 50 mM PIPES (pH 6.5), 0.5 mM DTT, 0.01% Tween-20, 0.5 nM V5-mAb-Eu, and 15 nM ,myc-Ab-Cy5. […] Kd-value determined here is a Kdapp-value as the antibody concentration is limiting in the assay. […]

[3] = target: T1, LRP5prop3,4LBD V5His (propellers 3 and …); experiment: TR-FRET competition; untagged R&D Dkk1 titrated against myc-tagged Dkk1 binding to LRP5prop34LBD
Procedure: The time resolved fluorescence resonance energy transfer (TR-FRET) platform was chosen to develop an assay for Dkk1-LRP5prop34LBD interaction because the TR-FRET assay is highly sensitive, easy to set up and capable of detecting weak interactions. For this assay, two labeled molecules are added to the system. If an interaction occurs, the labels are brought into close proximity and energy transfer occurs to release energy at specific wavelengths that can be detected. For detection of interaction between Dkk1 and LRP5prop34LBD, the Dkk1 (tagged with myc) is effectively labeled using a Cy5 labeled monoclonal anti-myc antibody. The LRP5prop34LBD (tagged with V5) is effectively labeled using a Europium labeled monoclonal anti-V5 antibody. Europium is excited at 340 nm and re-emits energy at 615 nm. Cy5 absorbs at 615 nm and emits energy at 665 nm which is detected. The measurement was conducted on a Wallac EnVision 2100 Multilabel Reader from PerkinElmer Life Science. […] The interaction between Dkk1 and LRP5prop3,4LBD is expressed as the ratio of fluorescence intensity at 665 nm over 615 nm, which represents the energy transfer from the europium to Cy5 dye. […]
Dkk1 without a myc tag was purchased from R&D Inc. and is a Dkk1 synthesized in a baculovirus/insect cell system. […] The data were analyzed with Grafit 5 (Erithacus Software).

Binder | activity in the TCF luciferase assay compared with baculovirus Dkk1 (FIG. 4) (% greater activity than R&D Systems Dkk1) [1] | Kd [2] [nM] | IC50 [3] [nM]
B1 | 25 | 11.8 | 
B2 |  |  | 1.42
